From patent publication US20210047373A1, “BETA BARREL POLYPEPTIDES AND METHODS FOR THEIR USE” (UNIVERSITY OF WASHINGTON, priority 2018, published 2021)
Numbering of substitutions follows the chain as printed. Where “and” joins values, the source holds several entries; their conditions need not be identical. Equal values may be shown once. Read-outs that look alike come from different tables or passages of the source. Marks after values point to notes of the source that are not given here.

B1: mFAP2: SEQ ID NO:38; variant of b11L5F.1 with 6-residue insertion in the seventh β-turn (protein)
chain: MSRAAQLLPGTWQVTMTNEDGQTSQGQMHFQPRSPYTMDVVAQGTISDGRPISGYGKVTVKTPDTLDVDITYPSLGNIKAQGQITMDSPTQFKFDATTKGAGNFTGRLTGTLQRQE
modifications: (1)..(1) optionally absent
B2: mFAP2.1: SEQ ID NO:40 (protein)
chain: B1 chain with P51T, S53V
modifications: (1)..(1) optionally absent
B3: mFAP2.2: SEQ ID NO:41 (protein)
chain: B1 chain with S53V
modifications: (1)..(1) optionally absent

Assays:
[1] = unbound, free DFHBI in liquid buffer; Paige et al., 2011; cited from earlier work
[2] = Photophysical characterization (absorbance, excitation, emission, extinction coefficient, quantum yield); assay type: physicochemical
[3] = cited from earlier work
[4] = Fluorescence brightness with DFHO; assay type: biochemical; conditions: normalized 0 to 1 across all three chromophores; average ± SD of two protein concentrations
Procedure: (§1) Table 3A-C. Brightness and chromophore affinities of selected mFAP variants. Fluorescence brightness measurements at 10 μM (top table) and 100 nM (middle table) chromophore concentrations were normalized from 0 to 1 across all three chromophores (DFHBI, DFHBI-1T, and DFHO), and the normalized values for two protein concentrations tested for each chromophore at each chromophore concentration were averaged and standard deviations of the average computed. Reported values are the normalized averages and standard deviations of the means for each chromophore concentration and each chromophore. Reported relative densitometry values are the relative densitometry values normalized from 0 to 1 and represent how well each design expresses relative to one another in Lemo21(DE3) E. coli cultures. Thermodynamic dissociation constants (bottom table) are obtained by non-linear least squares fitting of chromophore titrations (n=1) to a single binding site isotherm, and values reported with the standard deviation of the fit. Where the obtained Kd values are below the protein concentration tested, the Kd and standard deviation of the fit are reported in parentheses. Values with “N/D” were not determined.

[5] = Chromophore titration, fit to single binding site isotherm: DFHBI
Procedure: (§2) Fluorescence binding assay. Protein-activated DFHBI fluorescence signals were measured in 96-well plate format (Corning 3650) on a Synergy neo2 plate reader (BioTek, Inc) with λex=450 nm or 460 nm and λem=500 nm or 510 nm. Binding reactions were performed at […] in PBS pH7.4 buffer. Protein concentrations were determined by 280 nm absorbance as described above. DFHBI (Lucerna, Inc) were resuspended in DMSO as instructed to make 100 mM stock and diluted in PBS to 0.5-10 μM. Approximate emission spectra were recorded for active designs from 490 to 600 nm.
as §1

[6] = Fluorescence activation / brightness with DFHBI; assay type: biochemical; conditions: normalized 0 to 1 across all three chromophores; average ± SD of two protein concentrations
Procedure: as §2, §1

[7] = tested on: E. coli, yeast, and mammalian cells; experiment: Confocal imaging of cells expressing mFAPs with DFHBI; assay type: cell-based; conditions: 20 μM DFHBI
Procedure: To determine whether the designed DFHBI-binding fluorescence-activating proteins function in living cells, we imaged mFAP1- and mFAP2-DFHBI complexes in E. coli, yeast, and mammalian cells by confocal microscopy. […] The quantum yield of mFAP1 and mFAP2 in complex with DFHBI is 2.0% and 2.1% respectively (Table 2).
Confocal image acquisition. Mammalian cell imaging of mFAP1 and mFAP2 was performed in NIH3T3 cells (Flp-In-3T3, Thermo Fisher Scientific, Inc). NIH3T3 cells were cultured in high-glucose DMEM, 4 mM L-glutamine, 10% fetal bovine serum (FBS, Life Technologies, Inc) at 37 degrees Celsius, 5% CO2. Cells were plated at 4×10^4 cells/mL in 35 mm glass-bottomed dishes (Matek, Inc) that were coated with poly-D-lysine. Cells were transfected 24 hours after plating with Lipofectamine™ 3000 (Thermo Fisher Scientific, Inc) at a ratio of 3 μL reagent:1 μL DNA, according to manufacturer's instructions, with […] plasmids of mFAPs or mFAP fusions (1.25 μg mCherry™ plasmid was added to the cytosolic constructs as a transfection control). Right before imaging, cell media was replaced with FluorBrite™ DMEM (Thermo Fisher Scientific, Inc) media supplemented with GlutaMax™ (Thermo Fisher Scientific, Inc) and 10% v/v FBS, and 20 μM DFHBI. […] A white light laser of 488 was used to excite the DFHBI and detected by a HyD detector, over a range of 495-550 nm. […]

[8] = Chromophore titration, fit to single binding site isotherm: DFHO; conditions: n=1 titration; ± SD of the fit; Table 3C
Procedure: as §1

[9] = Chromophore titration, fit to single binding site isotherm: DFHBI-1T; conditions: n=1 titration; ± SD of the fit; Table 3C
Procedure: as §1

[10] = Fluorescence brightness with DFHBI-1T; assay type: biochemical; conditions: normalized 0 to 1 across all three chromophores; average ± SD of two protein concentrations
Procedure: as §1

[11] = pH-dependent fluorescence of mFAP/DFHBI complexes; assay type: biochemical
Excerpt: FIG. 22: In vitro characterization of the pH-responsive mFAP_pH and comparison to the existing pHRed system and pH-unresponsive mFAP2b. (a-c) Chemical basis of pH-responsiveness in mFAP_pH. (a) Chemical structures of protonated tautomers and deprotonated resonance structures of DFHBI. […] The arrangement of intermolecular hydrogen bonds in the binding site of mFAP2b (c, binding pocket of the design model with the phenolate form of DFHBI) has low shape complementarity to the protonated DFHBI tautomers. The mutations W27M and W93F improve binding to the protonated DFHBI tautomers (b, model of mFAP_pH binding pocket with the phenolic form of DFHBI). […] (d) Normalized fluorescence excitation spectra of the mFAP_pH/DFHBI complex are shown for a pH titration from pH 3.63 to pH 8.38. (e) mFAP_pH normalized fluorescence emission spectra at pH 3.63 and pH 8.38. […] (f) Binding of mFAP_pH to both the phenolic and phenolate forms of DFHBI results in a high fluorescence ratio fold-change from low to high pH. (h, i) pH-dependent fluorescence of the mFAPpH/DFHBI complex compared to the previously described pHRed system. […] (i) Fluorescence ratios (Fratio) of unnormalized fluorescence measurements from panel (h) for mFAP_pH and pHRed. […]
We sought to further improve fluorescence of the complex at acidic and neutral pH and built a site-directed mutagenesis (SDM) library at 15 positions of mFAP2.1. […]

[12] = Circular dichroism, thermal and GuHCl denaturation; assay type: physicochemical; conditions: CD in the absence of DFHBI, pH 2.93
Procedure: Circular dichroism (CD). Purified protein samples were prepared at 0.5 mg/ml in 20 mM Tris buffer (150 mM NaCl, pH8.0) or PBS buffer (25 mM phosphate, 150 mM NaCl, pH7.4). Wavelength scans from 195 nm to 260 nm were recorded at 25 degrees Celsius, 75 degrees Celsius, 95 degrees Celsius and cooling back to 25 degrees Celsius. Thermal denaturation was monitored at 220 nm or 226 nm from 25 degrees Celsius to 95 degrees Celsius. Near-UV wavelength scan from 240 nm to 320 nm and tryptophan fluorescence emission were recorded in the absence and presence of 5M guanidinium chloride (GuHCl). Chemical denaturation in GuHCl was monitored by both tryptophan fluorescence and near-UV CD signal at 285 nm. The concentration of the GuHCl stock solution was measured with a refractometer (Spectronic Instruments, Inc). Far-UV CD experiments were performed on an AVIV model 420 CD spectrometer (Aviv Biomedical, Inc). Near-UV CD and tryptophan fluorescence experiments were performed on a Jasco J-1500 CD spectrometer (Jasco, Inc). Protein concentrations were determined by 280 nm absorbance with a NanoDrop™spectrophotometer (ThermoScientific, Inc). Melting temperatures were estimated by smoothing the sparse data with a Savitsky-Golay filter of order 3 and approximating the smoothed data with a cubic spline to compute derivatives. Reported Tm values are the inflection points of the melting curves.

[13] = previously reported value, Table 4
[14] = n=1 titration, ± SD of the fit, Table 3C, read-out: DFHBI Kd

| Molecule | Fluorescence brightness, 100 nM DFHO [4] | Fluorescence brightness, 10 μM DFHO [4] | Kd [5, 14] | Fluorescence brightness, 100 nM DFHBI [6] | Fluorescence brightness, 10 μM DFHBI [6] | Kd [8] | Kd [9] | Fluorescence brightness, 100 nM DFHBI-1T [10] | Fluorescence brightness, 10 μM DFHBI-1T [10] | further results |
| --- | --- | --- | --- | --- | --- | --- | --- | --- | --- | --- |
| CC1=N/C(=C\c2cc(F)c(O)c(F)c2)C(=O)N1C [DFHBI, (Z)-4-(3,5-difluoro-4-hydroxybenzylidene)-1,2-dimethyl-1H-imidazol-5(4H)-one] | – | – | – | – | – | – | – | – | – | pKa [1]: 5.5; Extinction Coefficient ([2]; Table 2): 31,935 M^−1cm^−1; Absolute Quantum Yield ([2]; integrating sphere, Table 2): 0.001; λabs ([2]; peak absorbance wavelength, Table 2): 418 nm; Absolute Quantum Yield ([3]; previously reported value [1], Table 4): 0.001^#; λabs [3, 13]: 418^†# nm; λem [3, 13]: 489^† nm; λex [3, 13]: 423^† nm; Reported Quantum Yield ([3]; previously reported value): 0.0007^†; Relative Quantum Yield ([3]; reported value (ref 25), Table 2): 0.0007*** |
| B1 | 0.01 ± 0.0 | 0.01 ± 0.0 | 1.15 ± 0.16 µM | 0.12 ± 0.0 | 0.14 ± 0.03 | 22.7 ± 9.66 µM | 43.2 ± 7.01 µM | 0.15 ± 0.01 | 0.33 ± 0.04 | Kd ([5]; read-out: Dissociation constant of DFHBI): ~0.2 µM and ~0.18 µM; In vivo fluorescence activation [7]: showed in vivo fluorescence activation; Quantum yield in complex with DFHBI ([2]; absolute): 2.1% |
| B2 | 0.01 ± 0.0 | 0.01 ± 0.0 | – | 0.13 ± 0.0 | 0.07 ± 0.02 | – | – | 0.34 ± 0.01 | 0.25 ± 0.01 | Fluorescence in the presence of DFHBI at acidic pH ([11]; pH 3.66): higher fluorescence; Stability at low pH [12]: improved stability |
| B3 | 0.01 ± 0.0 | 0.01 ± 0.0 | 1.15 ± 0.16 µM | 0.13 ± 0.0 | 0.17 ± 0.03 | 22.7 ± 9.66 µM | 43.2 ± 7.01 µM | 0.33 ± 0.02 | 0.55 ± 0.02 | Fluorescence ratio fold-change, higher than mFAP2.1 ([11]; across pH 3.66-7.36): ~1.3 fold |
